“Also recorded” adds a separate entry of the source.
Test system: human APP co-expressed in HEK 293T cells
Experiment: α-CTF produced by APP co-expressed in HEK 293T cells (Western blot)
Type: cell-based
Conditions: for α-CTF produced by co-expressed APP: Western blot, vs GFP control; for degree of α-CTF increase compared to ApoE CT: ApoE CT positive control
Experimental: • a) A plasmid expressing the target protein in mammalian cells was constructed, and the protein expression promoter is CAG. • b) The target protein was expressed in HEK 293T cell line. Cells were subcultured one day before transfection, and transfection was performed when the degree of cell adhesion reached 70%-80%. The transfection reagent was lipofectamine2000 (ThermoFisher). • c) 4-6 hours post transfection, the medium were replaced with fresh cell culture medium. • d) 36-48 hours post transfection, the cells were lysed (10% 1M tris-HCl (pH=6.8), 4% SDS, 20% glycerol, 0.01% bromophenol blue), and the protein samples were collected and used for Western blot or stored in a −80° C. freezer. • e) Polyacrylamide gel electrophoresis. Before protein loading, the protein was boiled at 98° C. for 10 min, and then centrifuged at 12000 rpm for 10 min. Electrophoresis: 80V for the upper stacking gel; 120V for the lower separating gel. • f) Protein transfer. The filter paper was soaked in the electrophoresis solution before use, and the PVDF membrane was put in methanol for 10s to activate, and the gel after electrophoresis was taken out from the electrophoresis tank, put in the order of filter paper—PVD membrane—gel-filter paper from bottom to top, and they were put into the transfer instrument, with transferring in constant current at 0.1 A for 70 min. • g) Blocking and antibody incubation: the transferred PVDF membrane was placed in 5% BSA/TBST blocking solution, and blocked on a shaker at room temperature for 1 hour. The primary antibody was used to incubate at 4° C. overnight on a shaker (12-16 h); 1×TBST was used to wash three times, once every 10 minutes; the secondary antibody was used to incubate, shaked at room temperature for 1-2 h; 1×TBST was used to wash three times, once every 10 minutes. • h) Imaging by development: development was performed with ECL chemiluminescence hypersensitive chromogenic reagent.
Plasmids were transfected in HEK 293T or N2A cells for 36-48 hours and then lysed in cell lysis buffer [10% 1M tris-HCl (pH=6.8), 4% SDS, 20% glycerol, 0.01% bromophenol blue]. Lysates were shaken at room temperature for 10 min, then boiled for 10 min, and centrifuged at 12,000×g for 10 min. Proteins were run on 8% or 12% Tris-glycine SDS-PAGE and transferred to PVDF membranes (Life Technologies). Samples were incubated overnight at 4° C. with primary antibody diluted in 5% BSA buffer (in 1×TBST). After washing 3 times with 1×TBST, they were incubated with secondary antibody diluted in 5% BSA buffer (in 1×TBST) for 2 hours at room temperature. Finally, after washing 3 times with 1×TBST, the signal was detected by ECL Western blotting substrate (Solarbio, PE0010).
Data were analyzed by GraphPad Prism software (v6) using unpaired, paired, or one-sample t-tests. Aβ40 and Aβ42 levels were normalized to the corresponding GFP controls. α-CTF levels were normalized to FL-APP and corresponding GFP controls. All data are represented as mean±SEM. Statistical significance was defined as p<0.05. One, two, three and four stars (*) in the graph indicate p-values <0.05, <0.01, <0.001 and <0.0001, respectively.

Row | Molecule | α-CTF produced by co-expressed APP | degree of α-CTF increase compared to ApoE CT | α-CTF produced by co-expressed APP (listed as ApoE CT from a non-human primate)
1 | ApoE2 MD10: SEQ ID NO: 61; ApoE2 with amino acid residues at positions 244 to 254 deleted (protein) KVEQAVETEPEPELRQQTEWQSGQRWELALGRFWDYLRWVQTLSEQVQEELLSSQVTQELRALMDETMKELKAYKSELEEQLTPVAEETRARLSKELQAAQARLGADMEDVCGRLVQYRGEVQAMLGQSTEELRVRLASHLRKLRKRLLRDADDLQKCLAVYQAGAREGAERGLSAIRERLGPLVEQGRVRAATVGSLAGQPLQERAQAWGERLRARMEEMGSRTRDRLDEVKEQVAEVRAKLEAFQARLKSWFEPLVEDMQRQWAGLVEKVQAAVGTSAAPVPSDNH | significantly increases α-CTF; also recorded: also increased α-CTF |  | 
2 | CT E20: SEQ ID NO: 55; multiple site mutant of ApoE CT (protein) ARMEEMGSRTRDRLDEVKEAVAEVRAKLEEQAQQIRLQAAAFQARLKSWFEPLVEDMQRAWAGLVEKVQAAVGTSAAPVASDNH | can no longer increase α-CTF; also recorded: failed to increase |  | 
3 | CT R10: SEQ ID NO: 57; ApoE CT mutant S75A + P78A + V79A + P80A + S81A + D82A + N83A + H84A (protein) ARMEEMGSRTRDRLDEVKEQVAEVRAKLEEQAQQIRLQAEAFQARLKSWFEPLVEDMQRQWAGLVEKVQAAVGTAAAAAAAAAA | still significantly increase α-CTF; also recorded: can also significantly increase α-CTF |  | 
4 | CT A80: SEQ ID NO: 51; ApoE CT mutant P80A (P295A of SEQ ID NO: 12) (protein) ARMEEMGSRTRDRLDEVKEQVAEVRAKLEEQAQQIRLQAEAFQARLKSWFEPLVEDMQRQWAGLVEKVQAAVGTSAAPVASDNH | significantly increased α-CTF | even higher | 
5 | CT E5: SEQ ID NO: 53; multiple site mutant of ApoE CT (protein) ARMEEMGSRARDRLAEVKEAVAEVAAKLEAQAQQARLQAAAFQAALKSWAEPLVADMQRAWAGLAEKVQAAVGTAAAPVASDNH | can no longer increase α-CTF; also recorded: failed to increase |  | 
6 | CT A36/74: SEQ ID NO: 52; ApoE CT mutant R36A + T74A (R251A + T289A of SEQ ID NO: 12) (protein) ARMEEMGSRTRDRLDEVKEQVAEVRAKLEEQAQQIALQAEAFQARLKSWFEPLVEDMQRQWAGLVEKVQAAVGASAAPVPSDNH | significantly increased α-CTF | even higher | 
7 | CT LM5: SEQ ID NO: 59; ApoE CT mutant E23A + V24A + R25A + K27A (protein) ARMEEMGSRTRDRLDEVKEQVAAAAAALEEQAQQIRLQAEAFQARLKSWFEPLVEDMQRQWAGLVEKVQAAVGTSAAPVPSDNH | still significantly increase α-CTF; also recorded: can also significantly increase α-CTF |  | 
8 | CT F5: SEQ ID NO: 56; multiple site mutant of ApoE CT (protein) AAAAAMGSRTRDRLDEVKEQVAEVRAKLEEQAQQIRLQAEAFQARLKSWFEPLVEDMQRQWAGLVEKVQAAVGTSAAPVPSDNH | can no longer increase α-CTF; also recorded: failed to increase |  | 
9 | CT A40: SEQ ID NO: 47; ApoE CT mutant E40A (E255A of SEQ ID NO: 12); table prints CT A20 (protein) ARMEEMGSRTRDRLDEVKEQVAEVRAKLEEQAQQIRLQAAAFQARLKSWFEPLVEDMQRQWAGLVEKVQAAVGTSAAPVPSDNH | significantly increased α-CTF |  | 
10 | CT A65: SEQ ID NO: 49; ApoE CT mutant V65A (V280A of SEQ ID NO: 12) (protein) ARMEEMGSRTRDRLDEVKEQVAEVRAKLEEQAQQIRLQAEAFQARLKSWFEPLVEDMQRQWAGLAEKVQAAVGTSAAPVPSDNH | significantly increased α-CTF |  | 
11 | monkey CT: SEQ ID NO: 62; non-human primate-derived ApoE CT, R36S+T74A+A76T versus human ApoE CT (protein) ARMEEMGSRTRDRLDEVKEQVAEVRAKLEEQAQQISLQAEAFQARLKSWFEPLVEDMQRQWAGLVEKVQAAVGASTAPVPSDNH | also increase α-CTF | identical to that of human ApoE CT | significantly increased α-CTF
12 | CT A20: SEQ ID NO: 46; ApoE CT mutant Q20A (Q235A of SEQ ID NO: 12) (protein) ARMEEMGSRTRDRLDEVKEAVAEVRAKLEEQAQQIRLQAEAFQARLKSWFEPLVEDMQRQWAGLVEKVQAAVGTSAAPVPSDNH | significantly increased α-CTF |  | 
13 | CT LF5: SEQ ID NO: 58; ApoE CT mutant R11A + D12A + R13A + L14A + D15A (protein) ARMEEMGSRTAAAAAEVKEQVAEVRAKLEEQAQQIRLQAEAFQARLKSWFEPLVEDMQRQWAGLVEKVQAAVGTSAAPVPSDNH | still significantly increase α-CTF; also recorded: can also significantly increase α-CTF |  | 
14 | CT A72: SEQ ID NO: 50; ApoE CT mutant V72A (V287A of SEQ ID NO: 12) (protein) ARMEEMGSRTRDRLDEVKEQVAEVRAKLEEQAQQIRLQAEAFQARLKSWFEPLVEDMQRQWAGLVEKVQAAAGTSAAPVPSDNH | significantly increased α-CTF | even higher | 
15 | CT A60: SEQ ID NO: 48; ApoE CT mutant Q60A (Q275A of SEQ ID NO: 12) (protein) ARMEEMGSRTRDRLDEVKEQVAEVRAKLEEQAQQIRLQAEAFQARLKSWFEPLVEDMQRAWAGLVEKVQAAVGTSAAPVPSDNH | significantly increased α-CTF |  | 
16 | CT E10: SEQ ID NO: 54; multiple site mutant of ApoE CT (protein) ARMEEMGSRARDRLDEVKEAVAEVRAKLEAQAQQIRLQAAAFQARLKSWAEPLVEDMQRAWAGLVEKVQAAVGTSAAPVASDNH | can no longer increase α-CTF; also recorded: failed to increase |  | 
17 | ApoE2-M3F: SEQ ID NO: 60; ApoE2 with 3×FLAG added between residues 215 and 216 (protein, 3xFLAG inserted between residues 215 and 216) KVEQAVETEPEPELRQQTEWQSGQRWELALGRFWDYLRWVQTLSEQVQEELLSSQVTQELRALMDETMKELKAYKSELEEQLTPVAEETRARLSKELQAAQARLGADMEDVCGRLVQYRGEVQAMLGQSTEELRVRLASHLRKLRKRLLRDADDLQKCLAVYQAGAREGAERGLSAIRERLGPLVEQGRVRAATVGSLAGQPLQERAQAWGERLRGSGGSDYKDHDGDYKDHDIDYKDDDDKSGSGSARMEEMGSRTRDRLDEVKEQVAEVRAKLEEQAQQIRLQAEAFQARLKSWFEPLVEDMQRQWAGLVEKVQAAVGTSAAPVPSDNH | significantly increases α-CTF; also recorded: increased α-CTF |  | 
